Test results reported in PMC7137648.
Where two headings read alike, the source gives them in different places. Blank lines part the entries; values can stand above or below the substance they belong to.

Assays:
[1] = biological target: C1q (Homo sapiens) (UniProt P02745); conditions: cited from earlier work
[2] = biological target: C1q (Homo sapiens) (UniProt P02745); conditions: cited from earlier work; remark: listed apart in the source
[3] = biological target: complement protein C1q (human) (UniProt P02745); assay: SPR; N-glycosylation site mutants of SR-F1(20-421) with C1q (Figures S5A-C), n = 2; which partner was immobilised is not told in the text shown; apparent affinity
Chain of complement protein C1q (human) (P02745 23-245, chain 1 of 3): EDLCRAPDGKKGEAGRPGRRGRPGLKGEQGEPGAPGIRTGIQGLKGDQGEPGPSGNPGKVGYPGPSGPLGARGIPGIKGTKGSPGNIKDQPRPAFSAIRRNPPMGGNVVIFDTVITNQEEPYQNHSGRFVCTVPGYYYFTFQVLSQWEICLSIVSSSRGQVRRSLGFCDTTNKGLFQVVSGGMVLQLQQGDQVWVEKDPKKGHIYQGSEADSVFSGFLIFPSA
Chain of complement protein C1q (human) (P02746 28-253, chain 2 of 3, further chain): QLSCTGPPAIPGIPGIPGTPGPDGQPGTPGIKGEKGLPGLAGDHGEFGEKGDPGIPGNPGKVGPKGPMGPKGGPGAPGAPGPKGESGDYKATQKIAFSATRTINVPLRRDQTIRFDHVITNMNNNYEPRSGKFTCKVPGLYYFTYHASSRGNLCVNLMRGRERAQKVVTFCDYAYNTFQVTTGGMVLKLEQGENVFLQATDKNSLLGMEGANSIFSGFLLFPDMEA
Chain of complement protein C1q (human) (P02747 29-245, chain 3 of 3, further chain): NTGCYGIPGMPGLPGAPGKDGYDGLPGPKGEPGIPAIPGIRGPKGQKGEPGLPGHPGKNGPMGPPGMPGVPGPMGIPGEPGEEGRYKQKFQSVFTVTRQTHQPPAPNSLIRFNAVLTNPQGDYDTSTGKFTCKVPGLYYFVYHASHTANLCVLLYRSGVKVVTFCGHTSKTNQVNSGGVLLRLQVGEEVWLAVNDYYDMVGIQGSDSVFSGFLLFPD

Chain of C1q (Homo sapiens) (P02745 23-245, chain 1 of 3): as the sequence (P02745 23-245, chain 1 of 3) above
Chain of C1q (Homo sapiens) (P02746 28-253, chain 2 of 3, further chain): as the sequence (P02746 28-253, chain 2 of 3, further chain) above
Chain of C1q (Homo sapiens) (P02747 29-245, chain 3 of 3, further chain): as the sequence (P02747 29-245, chain 3 of 3, further chain) above
Chain of calreticulin (P27797 18-417): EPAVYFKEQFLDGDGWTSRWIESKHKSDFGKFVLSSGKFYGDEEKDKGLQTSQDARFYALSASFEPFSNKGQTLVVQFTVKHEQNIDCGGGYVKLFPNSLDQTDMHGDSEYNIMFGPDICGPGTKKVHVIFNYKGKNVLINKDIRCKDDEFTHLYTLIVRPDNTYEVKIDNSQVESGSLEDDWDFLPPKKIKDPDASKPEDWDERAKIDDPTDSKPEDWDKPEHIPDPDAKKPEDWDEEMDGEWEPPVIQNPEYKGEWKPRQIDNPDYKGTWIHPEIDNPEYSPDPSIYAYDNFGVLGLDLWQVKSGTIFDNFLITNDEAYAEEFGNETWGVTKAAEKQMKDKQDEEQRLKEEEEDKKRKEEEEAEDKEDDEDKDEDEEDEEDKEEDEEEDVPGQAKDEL
Chain of SR-F1 ECD (Q14162 20-421): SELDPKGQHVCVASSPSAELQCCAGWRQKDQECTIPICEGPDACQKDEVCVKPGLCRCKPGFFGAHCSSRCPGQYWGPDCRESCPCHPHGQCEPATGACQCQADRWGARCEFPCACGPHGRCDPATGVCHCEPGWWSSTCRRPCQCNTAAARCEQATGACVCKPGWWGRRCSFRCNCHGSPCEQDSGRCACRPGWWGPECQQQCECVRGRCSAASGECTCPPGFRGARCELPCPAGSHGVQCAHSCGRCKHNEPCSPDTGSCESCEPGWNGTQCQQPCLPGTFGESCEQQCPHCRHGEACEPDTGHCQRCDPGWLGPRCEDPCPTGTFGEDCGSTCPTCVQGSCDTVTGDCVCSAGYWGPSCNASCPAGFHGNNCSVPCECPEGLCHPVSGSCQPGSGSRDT

Substance: calreticulin (from UniProt P27797)
Kd [1]: 120 nM

Substance: SR-F1 ECD (from UniProt Q14162)
Kd [2]: 124 nM

Kd [3]: 581 nM
Substance: SR-F1(20-421) N289Q (from UniProt Q14162 20-421) (domain or fragment)
